Source: patent US20260176319A1 (KALLYOPE, published 2026)
Starred links: 1 amine or outer side, 2 acyl side, 3 side chain; linkers in the order of their positions; H or OH if unused. Non-standard residues stand in square brackets, D forms with d. No end group written: not given here. *: point of attachment. Trp(6-F) = N[C@@H](Cc1c[nH]c2cc(F)ccc12)C(=O)O; Trp(7-F) = N[C@@H](Cc1c[nH]c2c(F)cccc12)C(=O)O; Trp(7-Me) = Cc1cccc2c(C[C@H](N)C(=O)O)c[nH]c12; C20 diacid = O=C(O)CCCCCCCCCCCCCCCCCCC(=O)*; d(γGlu) = O=C(O)[C@@H](CCC(=O)[*:2])N[*:1]; C18 diacid = O=C(O)CCCCCCCCCCCCCCCCC(=O)*; γGlu = O=C(O)[C@H](CCC(=O)[*:2])N[*:1]; 2Nal = N[C@@H](Cc1ccc2ccccc2c1)C(=O)O; Cha = N[C@@H](CC1CCCCC1)C(=O)O; Nle = CCCC[C@H](N)C(=O)O; AEEA = NCCOCCOCC(=O)O; Sar = CNCC(=O)O

B1: Peptide 128 (peptide)
peptide: {C18 diacid}-[γGlu][AEEA][AEEA]GAHW[dA]V[dA]HL[Nle][Sar]-NH2
SMILES: CCCC[C@H](NC(=O)[C@H](CC(C)C)NC(=O)[C@H](Cc1c[nH]cn1)NC(=O)[C@@H](C)NC(=O)[C@@H](NC(=O)[C@@H](C)NC(=O)[C@H](Cc1c[nH]c2ccccc12)NC(=O)[C@H](Cc1c[nH]cn1)NC(=O)[C@H](C)NC(=O)CNC(=O)COCCOCCNC(=O)COCCOCCNC(=O)CC[C@H](NC(=O)CCCCCCCCCCCCCCCCC(=O)O)C(=O)O)C(C)C)C(=O)N(C)CC(N)=O
B2: Peptide 122 (peptide)
peptide: {C20 diacid}-[γGlu][AEEA][AEEA][AEEA][AEEA]GRH[Trp(7-Me)]AV[dA]HL[Nle]-NH2
SMILES: CCCC[C@H](NC(=O)[C@H](CC(C)C)NC(=O)[C@H](Cc1c[nH]cn1)NC(=O)[C@@H](C)NC(=O)[C@@H](NC(=O)[C@H](C)NC(=O)[C@H](Cc1c[nH]c2c(C)cccc12)NC(=O)[C@H](Cc1c[nH]cn1)NC(=O)[C@H](CCCNC(=N)N)NC(=O)CNC(=O)COCCOCCNC(=O)COCCOCCNC(=O)COCCOCCNC(=O)COCCOCCNC(=O)CC[C@H](NC(=O)CCCCCCCCCCCCCCCCCCC(=O)O)C(=O)O)C(C)C)C(N)=O
B3: Peptide 123 (peptide)
peptide: {C20 diacid}-[γGlu][AEEA][AEEA]GNH[Trp(7-Me)]AV[dA]HL[Nle][Sar]-NH2
SMILES: CCCC[C@H](NC(=O)[C@H](CC(C)C)NC(=O)[C@H](Cc1c[nH]cn1)NC(=O)[C@@H](C)NC(=O)[C@@H](NC(=O)[C@H](C)NC(=O)[C@H](Cc1c[nH]c2c(C)cccc12)NC(=O)[C@H](Cc1c[nH]cn1)NC(=O)[C@H](CC(N)=O)NC(=O)CNC(=O)COCCOCCNC(=O)COCCOCCNC(=O)CC[C@H](NC(=O)CCCCCCCCCCCCCCCCCCC(=O)O)C(=O)O)C(C)C)C(=O)N(C)CC(N)=O
B4: Peptide 9 (peptide)
peptide: {C18 diacid}-[d(γGlu)][AEEA][AEEA]GNHWAV[dA]HL[Nle]-NH2
SMILES: CCCC[C@H](NC(=O)[C@H](CC(C)C)NC(=O)[C@H](Cc1c[nH]cn1)NC(=O)[C@@H](C)NC(=O)[C@@H](NC(=O)[C@H](C)NC(=O)[C@H](Cc1c[nH]c2ccccc12)NC(=O)[C@H](Cc1c[nH]cn1)NC(=O)[C@H](CC(N)=O)NC(=O)CNC(=O)COCCOCCNC(=O)COCCOCCNC(=O)CC[C@@H](NC(=O)CCCCCCCCCCCCCCCCC(=O)O)C(=O)O)C(C)C)C(N)=O
B5: Peptide 120 (peptide)
peptide: {C18 diacid}-[γGlu][AEEA][AEEA]GAHWAV[dA]HL[Cha]-NH2
SMILES: CC(C)C[C@H](NC(=O)[C@H](Cc1c[nH]cn1)NC(=O)[C@@H](C)NC(=O)[C@@H](NC(=O)[C@H](C)NC(=O)[C@H](Cc1c[nH]c2ccccc12)NC(=O)[C@H](Cc1c[nH]cn1)NC(=O)[C@H](C)NC(=O)CNC(=O)COCCOCCNC(=O)COCCOCCNC(=O)CC[C@H](NC(=O)CCCCCCCCCCCCCCCCC(=O)O)C(=O)O)C(C)C)C(=O)N[C@@H](CC1CCCCC1)C(N)=O
B6: Peptide 129 (peptide)
peptide: {C18 diacid}-[γGlu][AEEA][AEEA]GRH[Trp(7-Me)]AV[dA]HL[Nle][Sar]-NH2
SMILES: CCCC[C@H](NC(=O)[C@H](CC(C)C)NC(=O)[C@H](Cc1c[nH]cn1)NC(=O)[C@@H](C)NC(=O)[C@@H](NC(=O)[C@H](C)NC(=O)[C@H](Cc1c[nH]c2c(C)cccc12)NC(=O)[C@H](Cc1c[nH]cn1)NC(=O)[C@H](CCCNC(=N)N)NC(=O)CNC(=O)COCCOCCNC(=O)COCCOCCNC(=O)CC[C@H](NC(=O)CCCCCCCCCCCCCCCCC(=O)O)C(=O)O)C(C)C)C(=O)N(C)CC(N)=O
B7: Peptide 132 (peptide)
peptide: {C20 diacid}-[γGlu][AEEA][AEEA][AEEA][AEEA]GRHWAV[dA]HL[Nle]-NH2
SMILES: CCCC[C@H](NC(=O)[C@H](CC(C)C)NC(=O)[C@H](Cc1c[nH]cn1)NC(=O)[C@@H](C)NC(=O)[C@@H](NC(=O)[C@H](C)NC(=O)[C@H](Cc1c[nH]c2ccccc12)NC(=O)[C@H](Cc1c[nH]cn1)NC(=O)[C@H](CCCNC(=N)N)NC(=O)CNC(=O)COCCOCCNC(=O)COCCOCCNC(=O)COCCOCCNC(=O)COCCOCCNC(=O)CC[C@H](NC(=O)CCCCCCCCCCCCCCCCCCC(=O)O)C(=O)O)C(C)C)C(N)=O
B8: Peptide 124 (peptide)
peptide: {C18 diacid}-[γGlu][AEEA][AEEA]GAH[2Nal]AV[dA]HL[Nle][Sar]-NH2
SMILES: CCCC[C@H](NC(=O)[C@H](CC(C)C)NC(=O)[C@H](Cc1c[nH]cn1)NC(=O)[C@@H](C)NC(=O)[C@@H](NC(=O)[C@H](C)NC(=O)[C@H](Cc1ccc2ccccc2c1)NC(=O)[C@H](Cc1c[nH]cn1)NC(=O)[C@H](C)NC(=O)CNC(=O)COCCOCCNC(=O)COCCOCCNC(=O)CC[C@H](NC(=O)CCCCCCCCCCCCCCCCC(=O)O)C(=O)O)C(C)C)C(=O)N(C)CC(N)=O
B9: Peptide 121 (peptide)
peptide: {C18 diacid}-[γGlu][AEEA][AEEA][AEEA][AEEA]GAH[Trp(7-F)]AV[dA]HL[Nle][Sar]-NH2
SMILES: CCCC[C@H](NC(=O)[C@H](CC(C)C)NC(=O)[C@H](Cc1c[nH]cn1)NC(=O)[C@@H](C)NC(=O)[C@@H](NC(=O)[C@H](C)NC(=O)[C@H](Cc1c[nH]c2c(F)cccc12)NC(=O)[C@H](Cc1c[nH]cn1)NC(=O)[C@H](C)NC(=O)CNC(=O)COCCOCCNC(=O)COCCOCCNC(=O)COCCOCCNC(=O)COCCOCCNC(=O)CC[C@H](NC(=O)CCCCCCCCCCCCCCCCC(=O)O)C(=O)O)C(C)C)C(=O)N(C)CC(N)=O
B10: Peptide 125 (peptide)
peptide: {C20 diacid}-[γGlu][AEEA][AEEA]GNH[Trp(7-Me)][dA]V[dA]HL[Nle][Sar]-NH2
SMILES: CCCC[C@H](NC(=O)[C@H](CC(C)C)NC(=O)[C@H](Cc1c[nH]cn1)NC(=O)[C@@H](C)NC(=O)[C@@H](NC(=O)[C@@H](C)NC(=O)[C@H](Cc1c[nH]c2c(C)cccc12)NC(=O)[C@H](Cc1c[nH]cn1)NC(=O)[C@H](CC(N)=O)NC(=O)CNC(=O)COCCOCCNC(=O)COCCOCCNC(=O)CC[C@H](NC(=O)CCCCCCCCCCCCCCCCCCC(=O)O)C(=O)O)C(C)C)C(=O)N(C)CC(N)=O
B11: Peptide 126 (peptide)
peptide: {C18 diacid}-[γGlu][AEEA][AEEA]GAH[2Nal]AV[dA]HL[Nle]-NH2
SMILES: CCCC[C@H](NC(=O)[C@H](CC(C)C)NC(=O)[C@H](Cc1c[nH]cn1)NC(=O)[C@@H](C)NC(=O)[C@@H](NC(=O)[C@H](C)NC(=O)[C@H](Cc1ccc2ccccc2c1)NC(=O)[C@H](Cc1c[nH]cn1)NC(=O)[C@H](C)NC(=O)CNC(=O)COCCOCCNC(=O)COCCOCCNC(=O)CC[C@H](NC(=O)CCCCCCCCCCCCCCCCC(=O)O)C(=O)O)C(C)C)C(N)=O
B12: Peptide 133 (peptide)
peptide: {C18 diacid}-[γGlu][AEEA][AEEA][AEEA][AEEA]GNH[Trp(6-F)]AV[dA]HL[Nle][Sar]-NH2
SMILES: CCCC[C@H](NC(=O)[C@H](CC(C)C)NC(=O)[C@H](Cc1c[nH]cn1)NC(=O)[C@@H](C)NC(=O)[C@@H](NC(=O)[C@H](C)NC(=O)[C@H](Cc1c[nH]c2cc(F)ccc12)NC(=O)[C@H](Cc1c[nH]cn1)NC(=O)[C@H](CC(N)=O)NC(=O)CNC(=O)COCCOCCNC(=O)COCCOCCNC(=O)COCCOCCNC(=O)COCCOCCNC(=O)CC[C@H](NC(=O)CCCCCCCCCCCCCCCCC(=O)O)C(=O)O)C(C)C)C(=O)N(C)CC(N)=O
B13: Peptide 131 (peptide)
peptide: {C20 diacid}-[γGlu][AEEA][AEEA]GNHWAV[dA]HL[Nle][Sar]-NH2
SMILES: CCCC[C@H](NC(=O)[C@H](CC(C)C)NC(=O)[C@H](Cc1c[nH]cn1)NC(=O)[C@@H](C)NC(=O)[C@@H](NC(=O)[C@H](C)NC(=O)[C@H](Cc1c[nH]c2ccccc12)NC(=O)[C@H](Cc1c[nH]cn1)NC(=O)[C@H](CC(N)=O)NC(=O)CNC(=O)COCCOCCNC(=O)COCCOCCNC(=O)CC[C@H](NC(=O)CCCCCCCCCCCCCCCCCCC(=O)O)C(=O)O)C(C)C)C(=O)N(C)CC(N)=O
B14: Peptide 119 (peptide)
peptide: {C18 diacid}-[γGlu][AEEA][AEEA]GNHWAV[dA]HL[Cha]-NH2
SMILES: CC(C)C[C@H](NC(=O)[C@H](Cc1c[nH]cn1)NC(=O)[C@@H](C)NC(=O)[C@@H](NC(=O)[C@H](C)NC(=O)[C@H](Cc1c[nH]c2ccccc12)NC(=O)[C@H](Cc1c[nH]cn1)NC(=O)[C@H](CC(N)=O)NC(=O)CNC(=O)COCCOCCNC(=O)COCCOCCNC(=O)CC[C@H](NC(=O)CCCCCCCCCCCCCCCCC(=O)O)C(=O)O)C(C)C)C(=O)N[C@@H](CC1CCCCC1)C(N)=O
B15: Peptide 130 (peptide)
peptide: {C18 diacid}-[γGlu][AEEA][AEEA]GNHRAV[dA]HL[Nle][Sar]-NH2
SMILES: CCCC[C@H](NC(=O)[C@H](CC(C)C)NC(=O)[C@H](Cc1c[nH]cn1)NC(=O)[C@@H](C)NC(=O)[C@@H](NC(=O)[C@H](C)NC(=O)[C@H](CCCNC(=N)N)NC(=O)[C@H](Cc1c[nH]cn1)NC(=O)[C@H](CC(N)=O)NC(=O)CNC(=O)COCCOCCNC(=O)COCCOCCNC(=O)CC[C@H](NC(=O)CCCCCCCCCCCCCCCCC(=O)O)C(=O)O)C(C)C)C(=O)N(C)CC(N)=O

Target: human GRP receptor (human, UniProt P30550 1-384)
Sequence (P30550 whole entry): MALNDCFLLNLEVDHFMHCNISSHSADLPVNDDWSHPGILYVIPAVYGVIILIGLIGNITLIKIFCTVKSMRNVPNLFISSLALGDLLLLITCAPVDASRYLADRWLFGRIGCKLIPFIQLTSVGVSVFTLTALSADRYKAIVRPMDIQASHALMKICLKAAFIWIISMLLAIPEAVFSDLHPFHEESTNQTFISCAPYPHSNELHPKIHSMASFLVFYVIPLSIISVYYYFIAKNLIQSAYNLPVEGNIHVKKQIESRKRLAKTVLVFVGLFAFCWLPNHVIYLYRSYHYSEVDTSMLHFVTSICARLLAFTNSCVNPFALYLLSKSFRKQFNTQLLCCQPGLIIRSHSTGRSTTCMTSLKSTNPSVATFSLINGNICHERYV
Assay: cell-based or functional assay

| Binder | hIP1 GRPR EC50 [nM] |
| --- | --- |
| GNHWAVGHLM-NH2 [GRP-10 (human GRP18-27)] | 15 |
| B1 | 1060 |
| B2 | 3.88 |
| B3 | 60.1 |
| B4 | 9.4 |
| B5 | 443 |
| B6 | 334 |
| B7 | 4.18 |
| B8 | 2380 |
| B9 | 356 |
| GNHWAVXHLX (Palmitoyl-Gly-Asn-His-Trp-Ala-Val-D-Ala-His-Leu-Nle-NH2) [Peptide 10] | 3.8 |
| B10 | > 10000 |
| B11 | 92.5 |
| B12 | 600 |
| B13 | 54.2 |
| B14 | 660 |
| B15 | > 10000 |
